In US20160003835, “APTAMERS AND USES THEREOF” (CARIS LIFE SCIENCES SWITZERLAND HOLDINGS S.A.R.L., published 2016):

Experiments:
EpCAM [1] = target: T1, EpCAM (UniProt P16422 P16422:24-265); experiment: SPR; immobilized biotinylated aptamer, HBS-EP+ buffer, global fit; settings: label: biotin
T1 sequence: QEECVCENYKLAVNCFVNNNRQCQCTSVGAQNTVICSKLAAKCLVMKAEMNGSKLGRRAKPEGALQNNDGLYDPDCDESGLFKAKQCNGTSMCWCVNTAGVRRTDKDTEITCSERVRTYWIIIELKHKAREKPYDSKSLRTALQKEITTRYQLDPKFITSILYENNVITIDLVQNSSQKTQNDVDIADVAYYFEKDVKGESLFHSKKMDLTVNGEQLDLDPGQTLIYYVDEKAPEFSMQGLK
Procedure: FIG. 4 illustrates results from a binding assay showing the binding affinity of an exemplary aptamer (Aptamer ID BTX176881 (SEQ ID NO. 98883)) to the target EpCAM protein at various target concentrations. The aptamer to be tested is fixed to a substrate using a biotin tail and is incubated with various concentrations of target (125, 250 and 500 nM). The test is performed on a surface plasmon resonance machine (SPR). The SPR machine detects association and disassociation of the aptamer and the target. Target is applied until the association and disassociation events are equal, resulting in a plateau of the curve. The equations describing the curve at each concentration can then be used to calculate the KD of the aptamer (see Table 5).
The Biacore 200 control software is programmed with the following conditions: Solution: HBS-EP+Buffer; Number of cycles: 3; Contact time: 120s; Flow rate: 30 μl/min; Dissociation time: 300s; Solution: Glycine-HCl pH 2.5; Contact time: 120s; Flow rate: 20 μl/min; Stabilization period: Os. The binding affinities of these aptamers are then measured using the SPR assay above, or an alternate in vitro assay assessing the aptamer for a desired function.

EpCAM [2] = target: T1, EpCAM; experiment: ELONA; standard ELISA plate; settings: tags: Fc fusion; label: biotin
EpCAM [3] = target: T1, EpCAM; experiment: bead fluorescence assay, anti-His beads; improved by 1 mM MgCl2 in 25 mM HEPES; lower affinity than Aptamer 4; settings: tags: His tag; label: biotin / SA-PE
Procedure: Purified CAR003 aptamer was tested for binding to recombinant EPCAM protein with a polyhistidine tag (“His tagged”) using the following internally developed assay. Anti-His tag conjugated beads were mixed with EPCAM-His tagged protein. The aptamer to be tested was labeled with streptavidin-phycoerythrin (SA-PE). The EpCAM-beads and SA-PE labeled aptamers were mixed. Binding was determined as median flourescent value in a bead assay as described herein. MFI values (FIG. 20E-F) increase with increased binding of the SA-PE labeled aptamer to the recombinant EpCAM. FIGS. 20E-F illustrate binding of CAR003 to EPCAM protein in 25 mM HEPES with PBS-BN (PBS, 1% BSA, 0.05% Azide, pH 7.4) (FIG. 20E) or in 25 mM HEPES with 1 mM MgCl₂ (FIG. 20F). EPCAM aptamer Aptamer 4 (see above) was used for comparison. As shown in the figures, CAR003 pool 3 more efficiently binds its target in the presence of MgCl₂ (FIG. 20F) than in the presence of BSA (FIG. 20E).
CAR003 affinity to EpCAM in the bead assay environment was assessed in the same assay as above with aptamer titrated across a constant input of antigen. FIG. 20I illustrates titration of aptamers against EPCAM recombinant protein (constant input 5 μg).

PSMA (FOLH1/NAALADase I) = PSMA (FOLH1/NAALADase I) (UniProt Q04609 Q04609:44-750); experiment: ELONA; ELISA against recombinant PSMA, values only in figure; settings: label: biotin
Chain of PSMA (FOLH1/NAALADase I) (Q04609 44-750, one chain of several): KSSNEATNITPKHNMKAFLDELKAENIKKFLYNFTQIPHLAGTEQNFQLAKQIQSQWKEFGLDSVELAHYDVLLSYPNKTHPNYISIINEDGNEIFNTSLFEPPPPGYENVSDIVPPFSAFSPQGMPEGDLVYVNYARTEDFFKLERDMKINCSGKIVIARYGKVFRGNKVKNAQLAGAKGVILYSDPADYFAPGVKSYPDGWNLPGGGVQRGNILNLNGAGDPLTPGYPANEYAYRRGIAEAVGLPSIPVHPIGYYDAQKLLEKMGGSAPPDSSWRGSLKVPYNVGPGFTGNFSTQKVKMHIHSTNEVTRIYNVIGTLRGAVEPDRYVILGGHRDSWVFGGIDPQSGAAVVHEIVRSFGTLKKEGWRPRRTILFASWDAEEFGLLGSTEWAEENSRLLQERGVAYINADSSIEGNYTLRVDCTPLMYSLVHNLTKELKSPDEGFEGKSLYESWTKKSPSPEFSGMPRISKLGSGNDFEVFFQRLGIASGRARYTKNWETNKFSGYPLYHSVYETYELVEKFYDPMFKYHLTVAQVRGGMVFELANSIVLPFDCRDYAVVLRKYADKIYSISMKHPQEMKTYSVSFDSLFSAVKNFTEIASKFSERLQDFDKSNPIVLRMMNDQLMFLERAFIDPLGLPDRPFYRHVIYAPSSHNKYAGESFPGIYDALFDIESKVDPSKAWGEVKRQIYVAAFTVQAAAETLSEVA

EpCAM [4] = target: T1, EpCAM; experiment: SPR; immobilized biotinylated aptamer, HBS-EP+ buffer, global fit; settings: label: biotin; remark: listed apart in the source

B1: BTX176881 (ssDNA)
DNA: CCGCGCAGATATACAACGTACCTCTGTGCGCA
modifications: 3' tail of 6 thymines and biotin
In the case of B1, the Kd (EpCAM [1]) is reported as 8.4 nM.

B2: CAR016 (ssDNA)
DNA: ACTAAGCCACCGTGTCCAACGTAAGTATATCTGTACAATGCTGCGTCACTCTGGAT
modifications: 5' biotin
B2: binds (EpCAM [2]).

B3: CAR003 (ssDNA)
DNA: ATCCAGAGTGACGCAGCAGTCTTTTCTGATGGACACGTGGTGGTCTAGTATCTGGACACGGTGGCTTAGT
modifications: 3' biotin (CAR003.2_3'-B, same bases as SEQ 230823)
B3: binds (EpCAM [3]).

B4: CAR051 (ssDNA)
DNA: ACTAAGCCACCGTGTCCAGCCCTATTCCCTCGCTTTCTCCCCTTTTGTTGCTGCGTCACTCTGGAT
modifications: 5' biotin
B4: binds (PSMA (FOLH1/NAALADase I)).

B5: Aptamer 4 (ssDNA)
DNA: CCCCCCGAATCACATGACTTGGGCGGGGGTCG
modifications: 3' tail of 6 thymines and biotin
In the case of B5, the Kd (EpCAM [4]) is reported as 10.1 nM.

B6: CAR050 (ssDNA)
DNA: ACTAAGCCACCGTGTCCACCCCCCTCTGTCTCTTGTTTCTCTTTTCTATGCTGCGTCACTCTGGAT
modifications: 5' biotin
B6: binds (PSMA (FOLH1/NAALADase I)).

B7: BTX187269 (ssDNA)
DNA: CTGTGAGGCGTACTGCGGTGAGCCTCTCATTA
modifications: 3' tail of 6 thymines and biotin
B7 showed a Kd (EpCAM [4]) of 7.12 nM.
